Experiments:
[1] = test system: plasma purified human AT-III (antithrombin III); assay: same assay; ratio of K0.5 to Catalyst Biosciences WT FIXa
[2] = test system: CB 2679d (modified FIX R318Y/R338E/T343R, SEQ ID NO:394), mature single-chain zymogen form
CB 2679d (modified FIX R318Y/R338E/T343R, SEQ ID NO:394), mature single-chain zymogen form, sequence (chain, as listed by the source R318Y R338E T343R): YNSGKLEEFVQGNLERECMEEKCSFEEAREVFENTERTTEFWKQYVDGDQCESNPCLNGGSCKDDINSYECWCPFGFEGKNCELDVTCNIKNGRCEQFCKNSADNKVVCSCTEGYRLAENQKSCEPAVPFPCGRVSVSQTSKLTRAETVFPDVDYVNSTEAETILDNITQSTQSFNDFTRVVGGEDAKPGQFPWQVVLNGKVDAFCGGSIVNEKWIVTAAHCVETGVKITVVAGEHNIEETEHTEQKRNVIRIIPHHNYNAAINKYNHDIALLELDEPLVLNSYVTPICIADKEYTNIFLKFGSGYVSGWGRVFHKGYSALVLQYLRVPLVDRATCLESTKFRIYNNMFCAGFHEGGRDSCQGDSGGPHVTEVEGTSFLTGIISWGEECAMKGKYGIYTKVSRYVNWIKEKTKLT

Substance	K0.5-mut/K0.5-wt [1] [fold]	activation rate and extent of activation by factor XIa/calcium [2]
BeneFIX Coagulation Factor IX (Recombinant), activated (FIXa)	0.9	
FIXa D85N	1.1	
FIXa A103N/N105S	1.1	
FIXa D104N/K106S	0.9	
FIXa K106N/V108S	1.6	
activated Factor XI (FXIa; Heamatologic Technologies, Inc.)		The activation rate of the polypeptide of SEQ ID NO:394 (CB 2679d) by factor XIa/calcium and the extent of activation (approximately 100%) were equivalent to those of commercial lots of BeneFIX®
